B1: P015010 scFv (scFv, V domains shown)
VH: EVQLLESGGGLVQPGGSLRLSCAASGFTFSNYAMSWVRQAPGKGLEWVSGISPNGSSIYYADSVKGRFTISRDNSKNTLYLQMNSLRAEDTAVYYCAKAARLSPSRNYSYAYGMDVWGQGTLVTVSS
VL: QSVLTQPPSASGTPGQRVTISCTGSSSNIGNNNVTWYQQLPGTAPKLLIYSDSQRPSGVPDRFSGSKSGTSASLAISGLRSEDEADYYCGTWDYSLNGYVFGGGTKLTVL
notes: HA-tagged scFv
B2: P015043 scFv (scFv, V domains shown)
VH: EVQLLESGGGLVQPGGSLRLSCAASGFTFSNYDMSWVRQAPGKGLEWVSWISPGGSSIYYADSVKGRFTISRDNSKNTLYLQMNSLRAEDTAVYYCAKTLTRFDYWGQGTLVTVSS
VL: QSVLTQPPSASGTPGQRVTISCTGSSSNIGNNNVSWYQQLPGTAPKLLIYYDSHRPSGVPDRFSGSKSGTSASLAISGLRSEDEADYYCGTWDSSLSGYVFGGGTKLTVL
notes: HA-tagged scFv
B3: P015002 scFv (scFv, V domains shown)
VH: EVQLLESGGGLVQPGGSLRLSCAASGFTFSDYSMSWVRQAPGKGLEWVSGISHNGGSTYYADSVKGRFTISRDNSKNTLYLQMSSLRAEDTAVYYCARDVSRWSKTRWSYDNAMDVWGQGTLVTVSS
VL: QSVLTQPPSASGTPGQRVTISCTGSSSNIGSNYVSWYRQLPGTAPKLLIYSDSNRPSGVPDRFSGSKSGTSASLAISGLRSEDEADYYCATWDASLSAYVFGGGTKLTVL
notes: HA-tagged scFv
B4: P015012 scFv (scFv, V domains shown)
VH: EVQLLESGGGLVQPGGSLRLSCAASGFTFSGYSMSWVRQAPGKGLEWVSGISYGGSSISYADSVKGRFTISRDNSKNTLYLQMNSLRAEDTAVYYCAKPVRRWARFRLSYDDAMDVWGQGTLVTVSS
VL: QSVLTQPPSASGTPGQRVTISCSGSSSNIGNNAVNWYQQLPGTAPKLLIYANSHRPSGVPDRFSGSKSGTSASLAISGLRSEDEADYYCGTWDSSLSGYVFGGGTKLTVL
notes: HA-tagged scFv
B5: P015041 scFv (scFv, V domains shown)
VH: EVQLLESGGGLVQPGGSLRLSCAASGFTFSNYAMSWVRQAPGKGLEWVSGISPNGSSIYYADSVKGRFTISRDNSKNTLYLQMNSLRAEDTAVYYCAKAARLSPSRNYSYAYGMDVWGQGTLVTVSS
VL: QSVLTQPPSASGTPGQRVTISCTGSSSNIGNNNVTWYQQLPGTAPKLLIYSDSQRPSGVPDRFSGSKSGTSASLAISGLRSEDEADYYCGTWEYSLNGYVFGGGTKLTVL
notes: HA-tagged scFv
B6: P015040 scFv (scFv, V domains shown)
VH: EVQLLESGGGLVQPGGSLRLSCAASGFTFSNYAMSWVRQAPGKGLEWVSGISPNGSSIYYADSVKGRFTISRDNSKNTLYLQMNSLRAEDTAVYYCAKAARLSPSRNYSYAYGMDVWGQGTLVTVSS
VL: QSVLTQPPSASGTPGQRVTISCTGSSSNIGNNNVTWYQQLPGTAPKLLIYSDSQRPSGVPDRFSGSKSGTSASLAISGLRSKDEADYYCGTWDYSLNGYVFGGGTKLTVL
notes: HA-tagged scFv
B7: P015005 scFv (scFv, V domains shown)
VH: EVQLLESGGGLVQPGGSLRLSCAASGFTFSDYSMSWVRQAPGKGLEWVSGISHNGGSTYYADSVKGRFTISRDNSKNTLYLQMSSLRAEDTAVYYCARDVSRWSKTRWSYDNAMDVWGQGTLVTVSS
VL: QSVLTQPPSASGTPGQRVTISCSGSSSNIGSNYVNWYQQLPGTAPKLLIYSDSHRPSGVPDRFSGSKSGTSASLAISGLRSEDEADYYCGSWDSSLNAYVLGGGTKLTVL
notes: HA-tagged scFv
B8: P015038 scFv (scFv, V domains shown)
VH: EVQLQESGGGLVLPGGSLRLSCAASGFTFNNYAMSWVRQAPGKGLEWVSGISPNGSSIYYADSVKGRFTISRDNSKNTLYLQMNSLRAEDTAVYYCAKAARLSPSRNYSYAYGMDVWGQGTLVTVSS
VL: QSVLTQPPSASGTPGQRVTISCTGSSSNIGNNNVTWYQQLPGTAPKLLIYSDSQRPSGVPDRFSGSKSGTSASLAISGLRSEDEADYYCGTWDYSLNGYVFGGGTKLTVL
notes: HA-tagged scFv

Target: T1, Ig-like (human, UniProt Q01973)
T1 construct: Ig-like domain, His tag; also called Ig-like domain; human ROR1-immunoglobulin domain
T1 sequence (Q01973 39-151 limits assumed): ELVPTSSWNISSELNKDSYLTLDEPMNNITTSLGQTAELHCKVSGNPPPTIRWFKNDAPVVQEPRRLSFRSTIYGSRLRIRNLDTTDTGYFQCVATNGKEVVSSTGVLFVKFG
Assay: scFv ELISA on coated domain, anti-HA-HRP, OD450
Method: Thereafter, the plate was treated with each scFv and reacted for 2 hours, followed by washing four times using PBST and distilled water. After binding at room temperature for 1 hour using an HRP-conjugated anti-HA antibody (Roche, 12013819001, Anti-HA-Peroxidase, High Affinity) capable of binding to the HA tag, washing was performed six times using PBST and distilled water. After color development by adding TMB substrate solution (Thermo Scientific, 34029, 1-Step™ Ultra TMB-ELISA Substrate Solution), the color reaction was stopped with stop solution (Invitrogen, SS04, ELISA Stop Solution), and the absorbance was measured at OD 450 nm. The scFv binding to each domain was analyzed through ELISA.

Row | Binder | binding result
1 | B1 | binds
2 | B2 | no binding
3 | B3 | no binding
4 | B4 | no binding
5 | B5 | binds
6 | B6 | binds
7 | B7 | no binding
8 | B8 | binds
